Laboratory results published in patent publication US20240409620A1 (CENTER FOR EXCELLENCE IN MOLECULAR CELL SCIENCE CHINESE …, published 2024).

Columns and labels:
[1] = target: T1, RSV/B/B9320 pre-fusion F protein (respiratory syncytial virus RSV/B/B9320); experiment: BLI (Octet RED96), antibody captured on AHC sensor; reference MEDI8897
T1 construct: also called pre-F of RSV type B; recombinant DS-Cav1

[2] = target: T2, RSV/A/A2 pre-fusion F protein (respiratory syncytial virus RSV/A/A2, UniProt P03420 26-109); experiment: as above
T2 construct: also called RSV A2 pre-fusion F protein; pre-F of RSV type A

[3] = target: T1, RSV/B/B9320 pre-fusion F protein; experiment: BLI (Octet RED96), antibody captured on AHC sensor; reference Palivizumab
[4] = target: T2, RSV/A/A2 pre-fusion F protein; experiment: as above
[5] = target: RSV/A/A2 fusion protein F on the virus (respiratory syncytial virus RSV/A/A2, UniProt P03420 26-574); experiment: cell-based or functional assay

B1: 4F1En1 (VH-S75R) (antibody, V domains shown)
VH: QVQLVESGGGVVQPGRSLRLSCAASGFSFYSYSVHWVRQAPGKGLEWVADVVYDGNHQHYTDSVKGRFTISRDTRKNTVYLQMGSLRAEDTALYYCTARSLVITLAGAGRDDYWGQGTTVTVSS
VL: DIVMTQSPLSLPVTPGEPASISCRSSQSLLHSNGYTYLDWYLQKPGQSPQLLIFLGSSRASGVPDRFSGSGSGTDFTLKISRVEAEDVGVYYCVQDLQTSLTFGGGTKLEIKR
notes: It is a human IgG captured through Fc
[1]
  fold higher binding affinity compared to MEDI8897: ≥ 100 fold
[2]
  fold higher affinity compared to MEDI8897: ≥ 10 fold
[3]
  fold higher binding affinity compared to PVZ: ≥ 100 fold
[4]
  fold higher affinity compared to PVZ: ≥ 10 fold
[5]
  IC50 against RSV/A2, fold lower than palivizumab: 62 fold
  neutralization potency for RSV/A/A2 strain, fold against 4F1-WT: 3 times
